The target in experiment [1] is 人源CD47 (on cells: hCD47-overexpressing CHO-K1; Raji) (human) (UniProt Q08722). The experiment can be described thus: flow cytometry on Raji cells (endogenous human CD47); Blank 58.3. On the technique in general: In flow cytometry, cells or beads pass a laser one at a time.
Experiment [2] has the same target. The experiment can be described thus: flow cytometry, purified antibody 10 ug/ml on CHO-K1 overexpressing human CD47.
The target of experiment [3] is 食蟹猴CD47 (on overexpressing CHO-K1 cells) (cynomolgus monkey). The experiment can be described thus: flow cytometry, purified antibody 10 ug/ml on CHO-K1 overexpressing cynomolgus CD47.
Experiment [4] addresses 人源CD47 (on cells: hCD47-overexpressing CHO-K1; Raji) (human) (UniProt Q08722). The experiment can be described thus: flow cytometry, phage supernatant; MFI on human CD47 CHO-K1 over MFI on wild-type CHO-K1.
The target of experiment [5] is 生物素化人源CD47蛋白 (购自Acro Biosystem) (human) (UniProt Q08722). The experiment can be described thus: phage ELISA; biotinylated human CD47 on streptavidin plate; ratio of experiment to control. Background: In an ELISA, binding on a coated surface is turned into a signal by an enzyme label.
For experiment [6] the target is unchanged. The experiment can be described thus: phage ELISA; biotinylated human CD47 on streptavidin plate, phage supernatant, HRP anti-M13.
In experiment [7] the target is 食蟹猴CD47 (on overexpressing CHO-K1 cells) (cynomolgus monkey). The experiment can be described thus: flow cytometry, phage supernatant; MFI on cynomolgus CD47 CHO-K1 over MFI on wild-type CHO-K1.
The target in experiment [8] is 人源CD47 (on cells: hCD47-overexpressing CHO-K1; Raji) (human) (UniProt Q08722). The experiment can be described thus: flow cytometry, phage supernatant on CHO-K1 overexpressing human CD47, anti-M13 then fluorescent secondary.
Experiment [9] concerns the target 食蟹猴CD47 (on overexpressing CHO-K1 cells) (cynomolgus monkey). The experiment can be described thus: flow cytometry, phage supernatant on CHO-K1 overexpressing cynomolgus CD47, anti-M13 then fluorescent secondary.

B1: 人源化抗体ID 4 (antibody, human IgG4 S228P, kappa, V domains shown)
VH: QVQLVQSGAEVKKPGASVKVSCKASGYTFTSYWMNWVRQAPGQGLEWMGRIDSSDSETHYNQKFKDRVTMTRDTSTSTVYMELSSLRSEDTAVYYCARQGEGLRRSWFPYWGQGTLVTVSS
VL: DIVMTQSPDSLAVSLGERATINCRASKSVSTSGYSYIHWYQQKPGQPPKLLIYVASNLQSGVPDRFSGSGSGTDFTLTISSLQAEDVAVYYCQHIRELPWTFGQGTKVEIKR
Turning to B1, the MFI in experiment [1] was determined as 14200 MFI; in experiment [2], 2040 MFI; in experiment [3], 786 MFI.

B2: 单克隆抗体ID 1 (phage粗培液, phage-displayed) (antibody, V domains shown)
VH: QVQLQQPGAELVKPGAPVKLSCKASGYTFTSYWMNWVKQRPGRGLEWIGRIDSSDSETHYNQKFKDKATLTVDKSSSTAYIQLSSLTSEDSAVYYCARQGEGLRRSWFPYWGQGTLVIVSA
VL: DIVLTQSPASLAVSLGQRATISCRASKSVSTSGYSYIHWYQQKPGQPPKLLIYVASNLQSGVPARFSGSGSGTDFTLNIHPVEEEDAATYYCQHIRELPWTFGGGTKLEIK
B2: in [4], the h-CHOK1/CHOK1 (MFI ratio to wild-type CHO-K1) stood at 13.4. Also, the 实验/对照 (OD450 ratio) in [5] was found to be 50.6. This molecule also showed an OD450 (实验) in [6] of 2.84 OD450. The c-CHOK1/CHOK1 (MFI ratio to wild-type CHO-K1) in experiment [7] was 10.7. Besides, the figures for the MFI in [8] and in [9] were 18300 MFI and 14600 MFI, respectively.

For the origin of these results see CN116478288A.
